± gives the standard deviation of the averaged measurements.
Test: total protein half-life in vivo (active degradation + dilution); higher = more stable protein
[1] = E. coli NCM3722 delta-clpP delta-lon delta-hslV, growth: N-lim chemostat, doubling time 6 h
[2] = E. coli NCM3722 delta-clpP, growth: N-lim chemostat, doubling time 6 h
[3] = E. coli NCM3722 delta-hslV, growth: N-lim chemostat, doubling time 6 h
[4] = E. coli NCM3722 delta-lon, growth: N-lim chemostat, doubling time 6 h
[5] = E. coli NCM3722 delta-smpB, growth: N-lim chemostat, doubling time 6 h
[6] = wild type E. coli NCM3722, growth: C-lim chemostat, doubling time 3 h
[7] = wild type E. coli NCM3722, growth: C-lim chemostat, doubling time 6 h
[8] = wild type E. coli NCM3722, growth: C-lim chemostat, doubling time 12 h
[9] = wild type E. coli NCM3722, growth: N-lim chemostat, doubling time 6 h
[10] = wild type E. coli NCM3722, growth: N-lim chemostat, doubling time 12 h
[11] = wild type E. coli NCM3722, growth: P-lim chemostat, doubling time 6 h
[12] = wild type E. coli NCM3722, growth: P-lim chemostat, doubling time 12 h

Row | Sequence | total protein half-life in vivo [1] [h] | total protein half-life in vivo [2] [h] | total protein half-life in vivo [3] [h] | total protein half-life in vivo [4] [h] | total protein half-life in vivo [5] [h] | total protein half-life in vivo [6] [h] | total protein half-life in vivo [7] [h] | total protein half-life in vivo [8] [h] | total protein half-life in vivo [9] [h] | total protein half-life in vivo [10] [h] | total protein half-life in vivo [11] [h] | total protein half-life in vivo [12] [h]
1 | MKRKLFWICAVAMGMSAFPSFMTQATPATQPLINAEPAVAAQTEQNPQVGQVMPGVQGADAPVVAQNGPSRDVKLTFAQIAPPPGSMVLRGINPNGSIEFGMRSDEVVTKAMLNLEYTPSPSLLPVQSQLKVYLNDELMGVLPVTKEQLGKKTLAQMPINPLFISDFNRVRLEFVGHYQDVCEKPASTTLWLDVGRSSGLDLTYQTLNVKNDLSHFPVPFFDPSDNRTNTLPMVFAGAPDVGLQQASAIVASWFGSRSGWRGQNFPVLYNQLPDRNAIVFATNDKRPDFLRDHPAVKAPVIEMINHPQNPYVKLLVVFGRDDKDLLQAAKGIAQGNILFRGESVVVNEVKPLLPRKPYDAPNWVRTDRPVTFGELKTYEEQLQSSGLEPAAINVSLNLPPDLYLMRSTGIDMDINYRYTMPPVKDSSRMDISLNNQFLQSFNLSSKQEANRLLLRIPVLQGLLDGKTDVSIPALKLGATNQLRFDFEYMNPMPGGSVDNCITFQPVQNHVVIGDDSTIDFSKYYHFIPMPDLRAFANAGFPFSRMADLSQTITVMPKAPNEAQMETLLNTVGFIGAQTGFPAINLTVTDDGSTIQGKDADIMIIGGIPDKLKDDKQIDLLVQATESWVKTPMRQTPFPGIVPDESDRAAETRSTLTSSGAMAAVIGFQSPYNDQRSVIALLADSPRGYEMLNDAVNDSGKRATMFGSVAVIRESGINSLRVGDVYYVGHLPWFERVWYALANHPILLAVLAAISVILLAWVLWRLLRIISRRRLNPDNE | 6.42 ± 0.47 | 7.04 ± 0.67 | 6.15 ± 0.65 | 6.28 ± 0.15 | 5.904 ± 0.057 | 3.17 ± 0.033 | 6.1 ± 0.11 | 10.7 ± 1.2 | 5.8 ± 0.2 | 11.4 ± 0.44 | 6.3 ± 0.39 | 11.8 ± 0.31
2 | MSVIKMTDLDLAGKRVFIRADLNVPVKDGKVTSDARIRASLPTIELALKQGAKVMVTSHLGRPTEGEYNEEFSLLPVVNYLKDKLSNPVRLVKDYLDGVDVAEGELVVLENVRFNKGEKKDDETLSKKYAALCDVFVMDAFGTAHRAQASTHGIGKFADVACAGPLLAAELDALGKALKEPARPMVAIVGGSKVSTKLTVLDSLSKIADQLIVGGGIANTFIAAQGHDVGKSLYEADLVDEAKRLLTTCNIPVPSDVRVATEFSETAPATLKSVNDVKADEQILDIGDASAQELAEILKNAKTILWNGPVGVFEFPNFRKGTEIVANAIADSEAFSIAGGGDTLAAIDLFGIADKISYISTGGGAFLEFVEGKVLPAVAMLEERAKK [P0A799] | 5.45 ± 0.47 | 5.27 ± 0.49 | 4.91 ± 0.11 | 5.68 ± 0.45 | 4.66 ± 0.14 | 3.28 ± 0.049 | 6.24 ± 0.46 | 12.8 ± 0.99 | 4.92 ± 0.11 | 8.6 ± 0.45 | 5.69 ± 0.4 | 12 ± 0.29
3 | MKYQLTALEARVIGCLLEKQVTTPEQYPLSVNGVVTACNQKTNREPVMNLSESEVQEQLDNLVKRHYLRTVSGFGNRVTKYEQRFCNSEFGDLKLSAAEVALITTLLLRGAQTPGELRSRAARMYEFSDMAEVESTLEQLANREDGPFVVRLAREPGKRENRYMHLFSGEVEDQPAVTDMSNAVDGDLQARVEALEIEVAELKQRLDSLLAHLGD |  | 5.48 ± 0.32 | 6.03 ± 0.02 | 6.75 ± 0.25 | 5.16 ± 0.098 | 3.01 ± 0.35 | 6.003 ± 0.036 | 9.65 ± 0.61 | 4.69 ± 0.64 | 10.6 ± 0.71 | 5.38 ± 0.72 | 12.8 ± 1.3
4 | MSEGWNIAVLGATGAVGEALLETLAERQFPVGEIYALARNESAGEQLRFGGKTITVQDAAEFDWTQAQLAFFVAGKEATAAWVEEATNSGCLVIDSSGLFALEPDVPLVVPEVNPFVLTDYRNRNVIAVPDSLTSQLLAALKPLIDQGGLSRISVTSLISASAQGKKAVDALAGQSAKLLNGIPIDEEDFFGRQLAFNMLPLLPDSEGSVREERRIVDEVRKILQDEGLMISASVVQAPVFYGHAQMVNFEALRPLAAEEARDAFVQGEDIVLSEENEFPTQVGDASGTPHLSVGCVRNDYGMPEQVQFWSVADNVRFGGALMAVKIAEKLVQEYLY | 5.37 ± 0.42 | 4.6 ± 0.02 | 4.6 ± 0.11 | 4.9 ± 0.73 | 4.57 ± 0.048 | 3.02 ± 0.082 | 5.614 ± 0.008 | 9.85 ± 0.24 | 5.14 ± 0.59 | 8.99 ± 1.9 | 6.16 ± 0.097 | 11.9 ± 0.28
5 | MITHISPLGSMDMLSQLEVDMLKRTASSDLYQLFRNCSLAVLNSGSLTDNSKELLSRFENFDINVLRRERGVKLELINPPEEAFVDGRIIRALQANLFAVLRDILFVYGQIHNTVRFPNLNLDNSVHITNLVFSILRNARALHVGEAPNMVVCWGGHSINENEYLYARRVGNQLGLRELNICTGCGPGAMEAPMKGAAVGHAQQRYKDSRFIGMTEPSIIAAEPPNPLVNELIIMPDIEKRLEAFVRIAHGIIIFPGGVGTAEELLYLLGILMNPANKDQVLPLILTGPKESADYFRVLDEFVVHTLGENARRHYRIIIDDAAEVARQMKKSMPLVKENRRDTGDAYSFNWSMRIAPDLQMPFEPSHENMANLKLYPDQPVEVLAADLRRAFSGIVAGNVKEVGIRAIEEFGPYKINGDKEIMRRMDDLLQGFVAQHRMKLPGSAYIPCYEICT [P0ADR8] | 5.75 ± 1.1 | 4.95 ± 0.11 | 5.02 ± 0.07 | 5.1 ± 0.26 | 4.58 ± 0.19 | 3.03 ± 0.13 | 6.01 ± 0.13 | 11.3 ± 0.31 | 5.07 ± 0.029 | 9.48 ± 0.11 | 5.93 ± 0.55 | 11.9 ± 0.48
6 | MTEMAKGSVTHQRLIALLSQEGADFRVVTHEAVGKCEAVSEIRGTALGQGAKALVCKVKGNGVNQHVLAILAADQQADLSQLASHIGGLRASLASPAEVDELTGCVFGAIPPFSFHPKLKLVADPLLFERFDEIAFNAGMLDKSVILKTADYLRIAQPELVNFRRTA | 5.051 ± 0.048 | 7.68 | 3.84 ± 0.28 | 5.17 ± 0.12 | 3.6 ± 0.12 | 3.19 ± 0.52 | 4.895 ± 0.03 | 8.13 ± 0.88 | 3.564 ± 0.0078 | 5.88 ± 0.3 | 4.71 ± 0.58 | 8.83 ± 0.85
7 | MKKIPLGTTDITLSRMGLGTWAIGGGPAWNGDLDRQICIDTILEAHRCGINLIDTAPGYNFGNSEVIVGQALKKLPREQVVVETKCGIVWERKGSLFNKVGDRQLYKNLSPESIREEVAASLQRLGIDYIDIYMTHWQSVPPFFTPIAETVAVLNELKSEGKIRAIGAANVDADHIREYLQYGELDIIQAKYSILDRAMENELLPLCRDNGIVVQVYSPLEQGLLTGTITRDYVPGGARANKVWFQRENMLKVIDMLEQWQPLCARYQCTIPTLALAWILKQSDLISILSGATAPEQVRENVAALNINLSDADATLMREMAEALER | 3.71 ± 1.3 |  | 4.29 ± 0.48 |  | 4.19 ± 0.18 | 2.96 ± 0.2 | 5.64 ± 1.4 | 8.09 ± 1.9 | 3.97 ± 0.2 | 6.75 | 6.344 ± 0.018 | 11.9 ± 0.44
